Laboratory results taken from US20180051287.

Columns and labels:
complement factor D (fD) [1] = biological target: complement factor D (fD) (UniProt P00746); assay: inhibition; details: non-specific control oligo
casein = assay: FP filter; details: specificity control; 100 nM DNA, 20 uM casein
complement factor D (fD) [2] = biological target: complement factor D (fD) (UniProt P00746); assay: flow; details: 2'-F G, 2'-OMe A, C, U, apparent Kd of pool, SB1T, 37 C
complement factor D (fD) [3] = biological target: complement factor D (fD) (UniProt P00746); assay: FP filter; details: 100 nM DNA, 5 uM fD

Sequence of complement factor D (fD) (P00746 26-253): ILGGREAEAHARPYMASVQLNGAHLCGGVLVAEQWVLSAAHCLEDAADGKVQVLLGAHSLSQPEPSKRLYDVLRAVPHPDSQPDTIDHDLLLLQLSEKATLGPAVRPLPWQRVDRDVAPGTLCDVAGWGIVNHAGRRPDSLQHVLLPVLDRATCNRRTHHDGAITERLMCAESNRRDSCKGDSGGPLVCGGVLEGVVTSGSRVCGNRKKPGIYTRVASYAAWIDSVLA

C8 non-specific control oligo
IC50 (complement factor D (fD) [1]; alternative-pathway hemolysis): > 160 nM | activity (complement factor D (fD) [1]; fD esterase assay): 105 % activity

GTGACGACTGACATATCTGCAAAAGTTAGATTGACATGGTATGCACCGTCTGAGGTTGGTCGTAGTTGAGTCTGAGTGCT [Aptamer 12 (rank 9)]
binding signal (casein): 0.6 % bound

GTGACGACTGACATATCTGCGGCGGTTGGGGTCGAAGGGCGAGGGGTGGGAGGTCGCCGTAGTTGAGTCTGAGTGCT [Aptamer 7 (rank 4)]
binding signal (casein): 0.1 % bound

GTGACGACTGACATATCTGCTGCTTCCAGCGGTCATGATATGCACTGTCTGAAGCTCGGTCGTAGTTGAGTCTGAGTGCT [Aptamer 15 (rank 12)]
binding signal (casein): 0.2 % bound

GGGAGUGUGUACGAGGCAUUAGGCCGCCNNNNNNNNNNNNNNNNNNNNNNNNNNNNNNGGCGGCUUUGAUACUUGAUCGCCCUAGAAGC [N30S selection round 6 pool]
Kd (complement factor D (fD) [2]): 34.4 nM

GTGACGACTGACATATCTGCNNNNNNNNNNNNNNNNNNNNNNNNNNNNNNNNNNNNNNNNCGTAGTTGAGTCTGAGTGCT [DNA selection round 9 pool]
binding signal (complement factor D (fD) [3]; round 9 pool): 14.6 % bound

GTGACGACTGACATATCTGCTCCGAGGTTATTGGGGTTGGGGCCTGGGCGATTGGGGCCTCGTAGTTGAGTCTGAGTGCT [Aptamer 4 (rank 1)]
binding signal (casein): 0.5 % bound

GTGACGACTGACATATCTGCGTTTGGGGTTGGGGCCTGGGAGTTTGGGGAGCAGAAAGGACGTAGTTGAGTCTGAGTGCT [Aptamer 5 (rank 2)]
binding signal (casein): 0.5 % bound

GTGACGACTGACATATCTGCTATTTTGGGGCCTGGGTGTTGGGGATTGGGGACTATGTGTCGTAGTTGAGTCTGAGTGCT [Aptamer 8 (rank 5)]
binding signal (casein): 0.3 % bound

GGGAGUGUGUACGAGGCAUUAGGCCGCCNNNNNNNNNNNNNNNNNNNNNNNNNNNNNNGGCGGCUUUGAUACUUGAUCGCCCUAGAAGC [N30S selection round 8 pool]
Kd (complement factor D (fD) [2]; competed by anti-fD Fab AFD): 8.8 nM

GGGAGUGUGUACGAGGCAUUAGGCCGCCNNNNNNNNNNNNNNNNNNNNNNNNNNNNNNGGCGGCUUUGAUACUUGAUCGCCCUAGAAGC [N30S selection round 7 pool]
Kd (complement factor D (fD) [2]; competed by anti-fD Fab AFD): 45.1 nM

GTGACGACTGACATATCTGCGGGCGTCTGAGCGCATGGATGACCCACCGACAGATTGCGGCGTAGTTGAGTCTGAGTGCT [Aptamer 27 (rank 24)]
binding signal (casein): 0.6 % bound

GTGACGACTGACATATCTGCCCTATAGGGGTGTGGGCGAGGGGTGGGTGGTAGGGCGGCTCGTAGTTGAGTCTGAGTGCT [Aptamer 10 (rank 7)]
binding signal (casein): 0.2 % bound

GTGACGACTGACATATCTGCNNNNNNNNNNNNNNNNNNNNNNNNNNNNNNNNNNNNNNNNCGTAGTTGAGTCTGAGTGCT [naive N40 DNA library]
binding signal (casein): 0.5 % bound | binding signal (complement factor D (fD) [3]; naive library background): 3.6 % bound | binding signal (complement factor D (fD) [3]; round 0 library): 0.88 % bound
